Data taken from patent publication US20070128190A1 (GLENMARK PHARMACEUTICALS S A, published 2007).

T1: GST-human α2 I domain fusion protein (human, UniProt P17301 153-368)
T1 construct: the reverse primer ends at ...SIEGTV; also called GST-α2 I domain; hα2I; not shown: glutathione S-transferase tag encoded by vector pGEX-2TK
T1 sequence: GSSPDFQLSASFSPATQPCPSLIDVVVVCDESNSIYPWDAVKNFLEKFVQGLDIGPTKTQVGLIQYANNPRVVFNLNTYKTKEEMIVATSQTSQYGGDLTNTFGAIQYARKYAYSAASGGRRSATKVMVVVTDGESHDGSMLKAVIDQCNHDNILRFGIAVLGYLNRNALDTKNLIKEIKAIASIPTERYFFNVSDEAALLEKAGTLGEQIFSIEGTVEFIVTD

T2: GST-cynomolgus α2 I domain fusion protein of Example 18 (sequence identical to the human I domain) (cynomolgus monkey, UniProt P17301 153-368 (human entry))
T2 construct: also called GST-cynomolgous-α2 I domain fusion protein; not shown: glutathione S-transferase tag, vector not restated
T2 sequence: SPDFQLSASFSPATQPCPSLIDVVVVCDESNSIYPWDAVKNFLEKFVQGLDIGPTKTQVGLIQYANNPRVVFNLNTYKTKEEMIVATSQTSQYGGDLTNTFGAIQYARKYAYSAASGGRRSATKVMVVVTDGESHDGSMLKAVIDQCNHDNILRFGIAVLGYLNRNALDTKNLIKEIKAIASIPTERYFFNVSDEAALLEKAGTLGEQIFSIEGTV

B1: TMC-2206 (antibody, mouse IgG1, V domains shown)
VH: QVQLKESGPGLVAPSQSLSITCTVSGFSLTNYGIHWVRQPPGKGLEWLGVIWARGFTNYNSALMSRLIITKDNSQSQVFLKMNSLQPDDSATYFCARANDGVYYAMDYWGQGTSVTVSS
VL: QFVLTQSPAFLSASPGEKVTMTCSANSSVNYIHWYQQKSGTSPKKWIYDTSKLASGVPVRFSGSGSGTSYSLTISSMETEDAATYYCQQWTTNPLTFGAGTRVELK
notes: murine IgG1/κ secreted by hybridoma BHA2.1; labelled with Eu-N1-ITC where used as tracer; also called BHA2.1
B2: Humanized TMC-2206 (hIgG4/κ VH12.0/VL10.0Q) (antibody)
heavy: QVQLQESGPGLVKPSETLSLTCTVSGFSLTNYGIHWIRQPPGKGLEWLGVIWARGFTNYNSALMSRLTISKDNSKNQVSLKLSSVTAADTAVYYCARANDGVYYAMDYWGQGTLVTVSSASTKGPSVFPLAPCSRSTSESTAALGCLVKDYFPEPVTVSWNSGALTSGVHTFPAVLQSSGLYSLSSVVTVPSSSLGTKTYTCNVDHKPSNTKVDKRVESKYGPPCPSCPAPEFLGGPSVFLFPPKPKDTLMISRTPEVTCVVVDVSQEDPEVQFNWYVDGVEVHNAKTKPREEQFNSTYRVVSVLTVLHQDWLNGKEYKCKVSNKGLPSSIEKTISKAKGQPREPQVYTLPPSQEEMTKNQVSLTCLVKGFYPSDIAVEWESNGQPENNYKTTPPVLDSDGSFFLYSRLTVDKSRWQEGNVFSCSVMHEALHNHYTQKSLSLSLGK
light: DFVMTQSPAFLSVTPGEKVTITCSAQSSVNYIHWYQQKPDQAPKKLIYDTSKLASGVPSRFSGSGSGTDYTFTISSLEAEDAATYYCQQWTTNPLTFGQGTKVEIKRTVAAPSVFIFPPSDEQLKSGTASVVCLLNNFYPREAKVQWKVDNALQSGNSQESVTEQDSKDSTYSLSSTLTLSKADYEKHKVYACEVTHQGLSSPVTKSFNRGEC
notes: labelled with Eu or Alexa-488 in some assays

Experiments:
BSA = biological target: T3, BSA (UniProt P02769 25-607); assay: Eu-labelled antibody on BSA-coated control wells
T3 construct: also called BSA coated control wells

[1] = biological target: T1, GST-human α2 I domain fusion protein; assay: ELISA, GST fusion protein on immobilized TMC-2206 (Kd apparent)
Experimental: (§1) The fusion proteins were then expressed and purified as described above for the human GST-α2 I domain fusion protein. […] Therefore, these and the primate fusion proteins were further purified by size exclusion chromatography on a Sephadex 75 10/30 (GE-Amersham) column (primate) by FPLC on an Akta-Basic FPLC system (GE-Amersham) to yield a monomeric fraction. […] The Kᵢ assays were performed as described above in Example 2. […] Plates were sealed and coating occurred overnight at 4° C. The next morning, the plates were washed twice with TBS solution and then blocked using 200 μL of the blocking solution described above for 1 hour at room temperature with shaking. After blocking, the blocking solution was removed but the wells were not washed. Instead, a serial dilution of GST fusion protein was made, added to the wells and then incubated for 2 hours at room temperature with shaking. The wells were then aspirated and a TBS washing buffer applied for 5 minutes at room temperature. The washing step was repeated twice more before the secondary antibody was applied. The secondary antibody step consisted of Amersham's HRP-conjugated rabbit anti-GST antibody diluted 1:2000 in blocking buffer. One hundred μL of secondary antibody was added to each well and incubated at room temperature for 1.5 hours with shaking. The wells were again aspirated and washed three times with wash buffer before adding the substrate reaction mixture. One hundred μL of substrate reaction mixture (1:1 dilution of TMB kit) was then added to each well for 6 minutes. The reaction was stopped by adding 100 μL of 0.1M H₂SO₄. The reaction within the wells was then read and quantified by spectrophotometric absorption using the Molecular Dynamics plate reader and associated Softmax software, respectively. Kd values were then estimated from the EC₅₀ values using Prism software (Graphpad, Calif.).

GST-hα2 I domain K78E = biological target: T4, GST-hα2 I domain K78E (human, UniProt P08515 1-218 = GST); assay: as above
T4 construct: same construct as m41
Experimental: as §1

[2] = biological target: human α1β1 integrin (immobilized) (human, UniProt P56199 29-1179; P05556 21-798, limits assumed); assay: ELISA on immobilized human α1β1
Experimental: Human α1β1 integrin (Chemicon International) was diluted in Coating Buffer (25 mM Tris, pH 7.5, 150 mM NaCl, 1 mM MgCl₂) to a final concentration of 0.5 μg/ml. 96-well immunoplates were coated with α1β1 at 50 ng/well and incubated overnight at 4° C. The plates were washed three times with Wash Buffer (50 mM Tris, pH 7.5, 150 mM NaCl, 2 mM MgCl₂, 0.5% Tween-20) and blocked with 5% w/v/skim milk in Wash Buffer for one hour at room temperature. […] Fifty microliters/well of the diluted antibody solutions were added to the α1β1-coated plates, incubated for one hour at room temperature, and then washed three times. […] After a one-hour incubation at room temperature, the plates were washed three times, incubated in substrate solution (1 mg/ml 4-nitrophenyl phosphate, 0.1 M diethanolamine, 5 mM MgCl₂, pH 9.8) for 20 minutes, and terminated with NaOH. The absorbance (405 nm) was read using a Spectramax Plus plate reader using Softmax Pro software. […] The control anti-α1β1 antibody (FB-12) bound to α1β1 with an EC₅₀ of 0.79±0.15 nM.

[3] = biological target: T2, GST-cynomolgus α2 I domain fusion …; assay: SPR (Biacore 2000), antibody captured, GST-α2 I domain in solution
[4] = biological target: T1, GST-human α2 I domain fusion protein; assay: SPR (Biacore 2000), antibody captured, GST-α2 I domain in solution; second Human row; second Human row of humanized TMC-2206
From the text: SPR, a method for characterizing macromolecular interactions, is an optical technique that uses the […] phenomenon to exquisitely measure minute changes in refractive index very close to a sensor surface. The binding between an antigen in solution (e.g., fusion protein) and its MAb receptor (immobilized on the surface of a sensor chip) results in a change in refractive index. The interaction is monitored in real time and the amount of bound antigen and the association and dissociation rate constants can be measured with high precision. The equilibrium dissociation constant can be easily calculated from: KD=kd/kₐ=koff/kₒₙ. The cloning of the human α2 I domain and the purification of the expressed GST-human α2 I domain fusion protein was described in Example 12. Analyses were performed at 20° C. using a Biacore 2000 optical sensor with a research-grade CM5 sensor chip (Biacore Life Sciences, Uppsala, Sweden) and equilibrated with running buffer (50 mM HEPES, 150 mM NaCl, 0.25 mM MgCl₂, 0.25 mM CaCl₂, 0.5% Tween-20, 0.1 mg/ml BSA, pH 7.4). […] Each cycle of antigen (GST-human-α2 I domain fusion protein) binding to surface-tethered anti-mouse IgGs involved three steps. […] [The other two surfaces (one anti-mouse and one Protein A) served as analytic references.] In the second step, GST-human-α2 I domain fusion protein was injected across the four surfaces. Responses obtained from the reference surfaces (due to refractive index mismatches between the antigen and running buffer) were subtracted from the responses obtained from the reaction surfaces. In the third step, the antigen/antibody complexes were stripped from the surfaces such that the surfaces could be used for another binding cycle.

T3 sequence (P02769 25-607 limits assumed): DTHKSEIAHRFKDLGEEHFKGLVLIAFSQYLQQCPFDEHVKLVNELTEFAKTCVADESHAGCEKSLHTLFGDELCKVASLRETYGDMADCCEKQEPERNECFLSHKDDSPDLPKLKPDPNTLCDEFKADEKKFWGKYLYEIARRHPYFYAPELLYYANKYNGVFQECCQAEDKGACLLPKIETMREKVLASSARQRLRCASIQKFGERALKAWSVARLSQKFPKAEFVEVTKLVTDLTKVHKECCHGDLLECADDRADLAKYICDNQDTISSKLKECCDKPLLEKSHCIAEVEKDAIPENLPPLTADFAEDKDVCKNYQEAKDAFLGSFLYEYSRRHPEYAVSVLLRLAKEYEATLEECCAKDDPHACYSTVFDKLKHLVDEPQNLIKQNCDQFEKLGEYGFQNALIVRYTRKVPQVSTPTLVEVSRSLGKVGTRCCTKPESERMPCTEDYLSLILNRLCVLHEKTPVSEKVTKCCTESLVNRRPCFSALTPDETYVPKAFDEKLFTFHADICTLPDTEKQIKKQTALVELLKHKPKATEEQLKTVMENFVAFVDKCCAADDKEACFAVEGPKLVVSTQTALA
human α1β1 integrin (immobilized), sequence (P56199 29-1179 limits assumed, chain 1 of 2): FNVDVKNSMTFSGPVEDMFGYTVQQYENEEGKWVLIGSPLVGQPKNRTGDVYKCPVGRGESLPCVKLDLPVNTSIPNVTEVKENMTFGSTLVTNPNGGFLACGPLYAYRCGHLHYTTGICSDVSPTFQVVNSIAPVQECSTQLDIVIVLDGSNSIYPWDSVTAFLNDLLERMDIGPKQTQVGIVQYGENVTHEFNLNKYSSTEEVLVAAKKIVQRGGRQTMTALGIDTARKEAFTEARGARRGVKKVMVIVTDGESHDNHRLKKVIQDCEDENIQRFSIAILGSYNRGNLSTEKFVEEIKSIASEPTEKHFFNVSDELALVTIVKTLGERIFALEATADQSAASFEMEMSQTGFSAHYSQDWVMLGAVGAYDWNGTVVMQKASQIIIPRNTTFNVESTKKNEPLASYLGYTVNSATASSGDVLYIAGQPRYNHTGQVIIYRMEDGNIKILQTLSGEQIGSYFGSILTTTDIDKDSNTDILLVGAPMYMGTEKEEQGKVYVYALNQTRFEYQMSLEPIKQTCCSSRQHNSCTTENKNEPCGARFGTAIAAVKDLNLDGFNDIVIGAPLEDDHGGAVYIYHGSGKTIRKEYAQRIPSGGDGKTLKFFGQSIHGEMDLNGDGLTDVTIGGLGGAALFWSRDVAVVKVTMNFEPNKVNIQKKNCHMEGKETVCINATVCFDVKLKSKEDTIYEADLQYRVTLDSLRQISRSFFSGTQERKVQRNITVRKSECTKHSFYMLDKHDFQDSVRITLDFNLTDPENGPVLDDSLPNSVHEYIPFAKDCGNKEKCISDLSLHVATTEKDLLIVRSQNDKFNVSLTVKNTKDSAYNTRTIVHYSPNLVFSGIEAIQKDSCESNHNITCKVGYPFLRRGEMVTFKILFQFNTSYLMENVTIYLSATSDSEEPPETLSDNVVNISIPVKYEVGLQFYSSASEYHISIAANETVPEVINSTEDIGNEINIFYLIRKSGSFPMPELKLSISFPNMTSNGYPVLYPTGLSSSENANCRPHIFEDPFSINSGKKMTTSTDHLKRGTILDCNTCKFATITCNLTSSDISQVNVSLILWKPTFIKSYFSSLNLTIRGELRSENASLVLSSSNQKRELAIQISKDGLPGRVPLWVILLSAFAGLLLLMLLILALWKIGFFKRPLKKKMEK
human α1β1 integrin (immobilized), sequence (P05556 21-798 limits assumed, chain 2 of 2): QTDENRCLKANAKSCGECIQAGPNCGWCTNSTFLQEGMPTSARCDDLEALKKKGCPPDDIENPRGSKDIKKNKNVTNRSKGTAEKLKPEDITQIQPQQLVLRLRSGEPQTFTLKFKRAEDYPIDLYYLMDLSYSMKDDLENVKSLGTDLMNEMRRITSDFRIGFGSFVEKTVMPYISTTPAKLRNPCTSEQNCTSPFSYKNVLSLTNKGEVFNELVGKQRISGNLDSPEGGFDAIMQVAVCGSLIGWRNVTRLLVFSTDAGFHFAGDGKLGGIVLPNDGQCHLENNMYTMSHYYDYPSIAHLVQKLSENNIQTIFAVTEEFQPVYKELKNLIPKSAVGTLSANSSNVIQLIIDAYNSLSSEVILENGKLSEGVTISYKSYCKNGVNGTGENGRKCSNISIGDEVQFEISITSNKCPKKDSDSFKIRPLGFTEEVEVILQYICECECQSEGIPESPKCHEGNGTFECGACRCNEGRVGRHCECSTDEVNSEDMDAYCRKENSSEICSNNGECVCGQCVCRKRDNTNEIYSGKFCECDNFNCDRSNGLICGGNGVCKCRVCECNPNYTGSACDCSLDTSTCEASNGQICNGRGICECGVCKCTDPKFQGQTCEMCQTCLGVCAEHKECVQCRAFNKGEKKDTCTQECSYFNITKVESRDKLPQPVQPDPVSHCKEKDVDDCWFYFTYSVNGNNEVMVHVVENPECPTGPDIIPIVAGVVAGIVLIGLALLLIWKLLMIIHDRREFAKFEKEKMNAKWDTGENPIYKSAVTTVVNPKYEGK

Binder | binding result (BSA) | Kd [1] | Kd (GST-hα2 I domain K78E) | binding result [2] | Kd [3] | koff [3] | kon [3] | Kd [4] | koff [4] | kon [4]
B1 | no binding | 0.31 nM | 0.16 nM | – | – | – | – | – | – | –
B2 | – | – | – | no binding | 5 nM | 0.003 s⁻¹ | 500000 M⁻¹ s⁻¹ | 4 nM | 0.0024 s⁻¹ | 580000 M⁻¹ s⁻¹
